Test [1] has as its target T1, biotinylated hBLyS-ECD (human, UniProt Q9Y275 134-285, biotinylated with Biotin-X-X-NHS (molar ratio 7:1), sites not stated).
T1 construct: The hBLyS-ECD of Embodiment 1 after biotinylation (Embodiment 2); also called biotinylated immunogen; BLyS protein; not shown: His tag of the pCPC vector
The experiment in a line: ELISA, biotinylated hBLyS-ECD captured on streptavidin; antibody 0 nM (blank). The procedure:
(§1) Streptavidin was first diluted to a final concentration of 1.0 μg/mL with PBS, and then 50 μL of diluted streptavidin per well was aliquoted into 96-well ELISA plate, which was subsequently sealed with plastic film and incubated at 4° C. overnight. On the next day the plate was washed four times with the plate washing buffer [PBS buffer containing 0.05% (v/v) Tween20] and added with the blocking solution [PBS buffer containing 0.05% (v/v) Tween20 and 1% (w/w) BSA] and blocked for 2 hours at 37° C. The blocking solution was removed, the biotinylated hBLyS-ECD prepared in Embodiment 2 was diluted with PBS to a final concentration of 50 ng/mL and then aliquoted into the 96-well ELISA plate at 50 μL per well and incubated for 1 hour at 37° C. After rinsing the plate four times with the plate washing buffer [PBS buffer containing 0.05% (v/v) Tween20], 100 μl of the purified lead antibody harvested in Embodiment 1 and 2 was pipetted into each well. After incubation for 1 hour at 37° C., the plate was rinsed four times with the plate washing buffer [PBS buffer containing 0.05% (v/v) Tween20]. HRP-labeled (horseradish peroxidase) secondary antibody (purchased from Sigma) was added in and incubated at 37° C. for 1 hour. The plate was then rinsed four times with the plate washing buffer [PBS buffer containing 0.05% (v/v) Tween20]. 100 μL of TMB substrate was aliquoted into each well and after incubation for 5 minutes at room temperature, 100 μL of stop solution (1.0 N HCl) was aliquoted into each well. A₄₅₀ₙₘ values were read via an ELISA plate reader (SpectraMax M5e purchased from Molecular Devices) and the results were shown in FIGS. 5A-5B and Table 10.
(In general: ELISA stands for enzyme-linked immunosorbent assay.)

Test [2] deals with T1, biotinylated hBLyS-ECD. The experiment in a line: ELISA, biotinylated hBLyS-ECD captured on streptavidin; antibody 2.67 nM. Here is the method:
as §1

The target in test [3] is T2, cynomolgus BLyS (full length, arginine 132 mutated to histidine) on CHO-K1 cells (cynomolgus, UniProt Q9Y275 1-285 (human entry)).
T2 construct: also called cyno BLyS; CHO-K1 cynoBLyS
T2 chain: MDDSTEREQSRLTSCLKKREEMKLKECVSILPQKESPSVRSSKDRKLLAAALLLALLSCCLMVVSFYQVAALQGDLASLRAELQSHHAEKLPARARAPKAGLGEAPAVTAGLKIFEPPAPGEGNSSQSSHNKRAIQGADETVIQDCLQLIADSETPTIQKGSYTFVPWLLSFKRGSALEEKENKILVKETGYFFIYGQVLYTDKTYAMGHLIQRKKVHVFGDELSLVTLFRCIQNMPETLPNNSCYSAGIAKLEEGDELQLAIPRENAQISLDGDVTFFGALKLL
The experiment in a line: flow cytometry (FACS) on CHO-K1 cynoBLyS cells, Alexa 488 secondary antibody. (In general: In flow cytometry, cells or beads pass a laser one at a time.)

The target in test [4] is T3, biotinylated hBLyS-ECD (human, UniProt Q9Y275 134-285, biotinylated with Biotin-X-X-NHS (molar ratio 7:1); sites not stated).
T3 construct: also called biotinylated immunogen; BLyS protein
T3 sequence (Q9Y275 134-285): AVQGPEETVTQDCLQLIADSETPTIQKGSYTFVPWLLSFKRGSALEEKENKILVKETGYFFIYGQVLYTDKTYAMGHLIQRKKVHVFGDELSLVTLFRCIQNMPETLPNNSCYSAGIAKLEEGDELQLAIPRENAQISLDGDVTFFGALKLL
Description: blocking ELISA: biotinylated hBLyS-ECD on coated BAFF R, antibody 0.8 nM. Here is the method: (§2) BAFF R (purchased from R & D Systems) was aliquoted into 96-well ELISA plate at 50 ng per well, and the plate was sealed with plastic film and incubated overnight at 4° C. On the next day the plate was washed four times with the plate washing buffer [PBS buffer containing 0.05% (v/v) Tween20] and added with blocking solution [PBS buffer containing 0.05% (v/v) Tween20 and 1% (w/w) BSA], then blocked for 1 hour at room temperature. The blocking solution was removed and 50 μL per well of the lead antibodies prepared in Embodiment 1 and 2 were added followed by the addition of 50 μL per well of the biotinylated hBLyS-ECD prepared in Embodiment 2. After incubation for 1 hour at 37° C., the plate was washed four times with the plate washing buffer [PBS buffer containing 0.05% (v/v) Tween20]. 100 μL per well of HRP-labeled (horseradish peroxidase) avidin (purchased from Sigma) was added and incubated at 37° C. for 1 hour. The plate was then washed four times with the plate washing buffer [PBS buffer containing 0.05% (v/v) Tween20]. 100 μL of TMB substrate was aliquoted into each well and after incubation for 5 minutes at room temperature, then 100 μL of stop solution (1.0 N HCl) was aliquoted into each well. A₄₅₀ₙₘ values were read with an ELISA plate reader (SpectraMax 384plus, Molecular Device) and the results were shown in FIGS. 9A-9B and Table 15. It was shown in Table 15 that the binding of BLyS protein to its receptor BAFF R could be blocked by the BLyS antibody.

For test [5], the target named is T3, biotinylated hBLyS-ECD. The experiment in a line: blocking ELISA: biotinylated hBLyS-ECD on coated BAFF R, antibody 0.00128 nM. Here is the method: BLyS antibody blocking the binding of the BLyS protein to its receptor BAFF R was detected by the receptor-ligand binding assay of BLyS protein.
as §2

In test [6] the target is T3, biotinylated hBLyS-ECD. The experiment in a line: blocking ELISA: biotinylated hBLyS-ECD on coated BAFF R, antibody 0.032 nM. The procedure: as §2

The text below walks through data of patent US20210347873A1 (SHANGHAI PHARMAEXPLORER, published 2021).

T1 sequence (Q9Y275 134-285): as above

B1: L1D12 (antibody, human IgG1, V domains shown)
VH: QVQLVQSGGGLVQPGGSLRLSCAASGFTVSSNYMSWVRQAPGKGLEWVSVIYSGGSTYYADSVKGRFTISRDNSKNTLYLQMNSLRAEDTAVYYCARGFHDILTGYGMDVWGQGTTVTVSS
VL: SSELTQDPAVSVALGQTVRITCQGDSLRNYYAGWYQQKPGQAPVLVIYGKNNRPSGIPDRFSGSSSGNTASLTITGTQAEDEADYYCSSRDNSGTHLVEFGGGTKLTVL
notes: also called LID12
As a reminder, the EC50 (read off the curve) is the concentration at which the effect is half-maximal. The low end stands for a more potent agent, the high end for a less potent agent. Turning to B1, the OD450 nm with biotinylated hBLyS-ECD [1] was found to be 0.11; with biotinylated hBLyS-ECD [2], 1.65. Further, the half-maximal effective concentration (EC50 (read off the curve)) in test [3] was about 0.2 nM.

B2: 8E7D9C7F5 (antibody, V domains shown)
VH: QVQLQQSGVELARPGASVKLSCKASGYTFTSYGISWVKQRTGQALEWIGEIYPRSGNTYYNEKFKGKATLTADKSSSTAYMELRSLTSEDSAVYFCARSGPITTLVATDYGMDYWGQGTSVTVSS
VL: DIVLTQSPASLAVSLGQRATISCRASKSVSTSSYSYMHWYQQKPGQPPKLLIKFASNLESGVPARFSGSGSGTDFTLNIHPVEEEDAATYYCQHSREFPYTFGGGTKLEIK
notes: Mouse hybridoma monoclonal antibody purified on Protein G
For B2, the values for the OD450 nm with biotinylated hBLyS-ECD [4], with biotinylated hBLyS-ECD [5] and with biotinylated hBLyS-ECD [6] were 0.294 OD450 nm, 1.62 OD450 nm and 1.05 OD450 nm, respectively.

B3: 111D10D6G3 (antibody, V domains shown)
VH: QVQLQQPGAELVKPGASVKMSCKASGYTFTRHWITWVKQRPGQGLEWIGDIFPGSGSINYNEKFKSEATLTVEKSSSTAYMQLSSLTSEDSAVYYCARGDVDVWGTGTTVTVSS
VL: DIQMTQSPSSLSASLGERVSLTCRASQEIRGYLSWLQQKPNGTIKRLIYAASTLDSGVPKRFSATRSGSDFSLTISSLESEDFADYYCLQYASYPFTFGSGTKLEIK
notes: as for B2
Take B3: the OD450 nm in the test with biotinylated hBLyS-ECD [4] is 0.717 OD450 nm; with biotinylated hBLyS-ECD [5] it was 1.27 OD450 nm; with biotinylated hBLyS-ECD [6] it was 1.14 OD450 nm.

B4: 111D10D6G3 (antibody, V domains shown)
VH: QVQLQQPGAELVKPGASVKMSCKASGYTFTRHWITWVKQRPGQGLEWIGDIFPGSGSINYNEKFKSEATLTVEKSSSTAYMQLSSLTSEDSAVYYCARGDVDVWGTGTTVTVSS
VL: DIQMTQSPSSLSASLGERVSLTCRASQEIRGYLSWLQQKPNGTIKRLIYAASTLDSGVPKRFSATRSGSDFSLTISSLESEDFADYYCLQYASYPFTFGSGTKLEIK
notes: Mouse hybridoma antibody purified on Protein G
For the molecule B4, the results for the OD450 nm with biotinylated hBLyS-ECD [1] and with biotinylated hBLyS-ECD [2] were 0.0617 and 1.78, respectively. Moreover, the 50% effective concentration (EC50 (read off the curve)) in test [3] is about 0.1 nM.

B5: L9G7 (antibody, human IgG1, V domains shown)
VH: QIQLVQSGAEVKKPGASVKVSCKASGYTFTSYGISWVRQAPGQGLEWMGWISAYNGNTNYAQKLQGRVTMTTDTSTSTAYMELRSLRSDDTAVYYCARTYYDILTGYYYYGMDVWGQGTTVTVSS
VL: EIVLTQSPGTLSLSPGERATLSCRTSQSVDTYLAWYQQKPGQAPRLLIYDASNRATGIPARFSGSGSGTDFTLTISSLEPEDFAVYYCQQRSNWPLTFGGGTKVEIK
Regarding B5, the OD450 nm with biotinylated hBLyS-ECD [1] came out at 0.071; in the test with biotinylated hBLyS-ECD [2] it was 1.71. Besides, the “EC50 (read off the curve)” value in test [3] was about 0.2 nM.

B6: 97A3C2H4 (antibody, V domains shown)
VH: EVKLVESGGGLVQPGGSLKLSCAASGFTFSTYTMSWVRQTPEKRLEWVAYISYGGGSTSYPDTVKGRFTISRDNAKNTLYLQMSSLKSEDTAIYYCTRHVTVVENSMDYWGQGTSVTVSS
VL: DILLTQSPDILSVSPGERVSFSCRASQSIGTSIHWYQQRTNGSPRLLIKYVSESFSGTPSRFSGSGSGTAFTLTINSVESEDIADYYCQQTHSWPWTFGGGTKLEIK
notes: as for B2
For the molecule B6, the figures for the OD450 nm in the test with biotinylated hBLyS-ECD [4], with biotinylated hBLyS-ECD [5] and in the test with biotinylated hBLyS-ECD [6] were 0.424 OD450 nm, 1.34 OD450 nm and 1.12 OD450 nm, respectively.

B7: 97A3C2H4 (antibody, V domains shown)
VH: EVKLVESGGGLVQPGGSLKLSCAASGFTFSTYTMSWVRQTPEKRLEWVAYISYGGGSTSYPDTVKGRFTISRDNAKNTLYLQMSSLKSEDTAIYYCTRHVTVVENSMDYWGQGTSVTVSS
VL: DILLTQSPDILSVSPGERVSFSCRASQSIGTSIHWYQQRTNGSPRLLIKYVSESFSGTPSRFSGSGSGTAFTLTINSVESEDIADYYCQQTHSWPWTFGGGTKLEIK
notes: as for B4
For the molecule B7, the OD450 nm came out at 0.0603 in the test with biotinylated hBLyS-ECD [1] and 2.75 in the test with biotinylated hBLyS-ECD [2]. In addition, in test [3], the “EC50 (read off the curve)” value was about 0.3 nM.
